Results: paper PMC8103107, “Myeloid‐resident neuropilin‐1 promotes choroidal neovascularization while mitigating inflammation” (EMBO Molecular Medicine, 2021)

B1: vascular endothelial growth factor A (ligand)
chain: APMAEGGGQNHHEVVKFMDVYQRSYCHPIETLVDIFQEYPDEIEYIFKPSCVPLMRCGGCCNDEGLECVPTEESNITMQIMRIKPHQGQHIGEMSFLQHNKCECRPKKDRARQENPCGPCSERRKHLFVQDPQTCKCSCKNTDSRCKARQLELNERTCRCDKPRR
modifications: Assumed to be VEGF165, the customary recombinant product, because the isoform is not printed. Mature residues 1-165 equal entry residues 207-395 with the exon 6a region 321-345 replaced by the …
B2: Semaphorin 3A (ligand, UniProt Q14563 21-771, looked up)
chain: NYQNGKNNVPRLKLSYKEMLESNNVITFNGLANSSSYHTFLLDEERSRLYVGAKDHIFSFDLVNIKDFQKIVWPVSYTRRDECKWAGKDILKECANFIKVLKAYNQTHLYACGTGAFHPICTYIEIGHHPEDNIFKLENSHFENGRGKSPYDPKLLTASLLIDGELYSGTAADFMGRDFAIFRTLGHHHPIRTEQHDSRWLNDPKFISAHLISESDNPEDDKVYFFFRENAIDGEHSGKATHARIGQICKNDFGGHRSLVNKWTTFLKARLICSVPGPNGIDTHFDELQDVFLMNFKDPKNPVVYGVFTTSSNIFKGSAVCMYSMSDVRRVFLGPYAHRDGPNYQWVPYQGRVPYPRPGTCPSKTFGGFDSTKDLPDDVITFARSHPAMYNPVFPMNNRPIVIKTDVNYQFTQIVVDRVDAEDGQYDVMFIGTDVGTVLKVVSIPKETWYDLEEVLLEEMTVFREPTAISAMELSTKQQQLYIGSTAGVAQLPLHRCDIYGKACAECCLARDPYCAWDGSACSRYFPTAKRRTRRQDIRNGDPLTHCSDLHHDNHHGHSPEERIIYGVENSSTFLECSPKSQRALVYWQFQRRNEERKEEIRVDDHIIRTDQGLLLRSLQQKDSGNYLCHAVEHGFIQTLLKVTLEVIDTEHLEELLHKDDDGDGSKTKEMSNSMTPSQKVWYRDFMQLINHPNLNTMDEFCEQVWKRDRKQRRQRPGHTPGNSNKWKHLQENKKGRNRRTHEFERAPRSV
notes: Semaphorin 3A (SEMA3A), injected as analyte in SPR; also called SEMA3A; Sema3A

Biological target: T1, recombinant NRP1-derived trap consisting of the extracellular domain of NRP1 (UniProt O14786 22-856)
T1 construct: also called soluble NRP1; soluble receptor Neuropilin-1; source: purified recombinant
T1 sequence (looked up): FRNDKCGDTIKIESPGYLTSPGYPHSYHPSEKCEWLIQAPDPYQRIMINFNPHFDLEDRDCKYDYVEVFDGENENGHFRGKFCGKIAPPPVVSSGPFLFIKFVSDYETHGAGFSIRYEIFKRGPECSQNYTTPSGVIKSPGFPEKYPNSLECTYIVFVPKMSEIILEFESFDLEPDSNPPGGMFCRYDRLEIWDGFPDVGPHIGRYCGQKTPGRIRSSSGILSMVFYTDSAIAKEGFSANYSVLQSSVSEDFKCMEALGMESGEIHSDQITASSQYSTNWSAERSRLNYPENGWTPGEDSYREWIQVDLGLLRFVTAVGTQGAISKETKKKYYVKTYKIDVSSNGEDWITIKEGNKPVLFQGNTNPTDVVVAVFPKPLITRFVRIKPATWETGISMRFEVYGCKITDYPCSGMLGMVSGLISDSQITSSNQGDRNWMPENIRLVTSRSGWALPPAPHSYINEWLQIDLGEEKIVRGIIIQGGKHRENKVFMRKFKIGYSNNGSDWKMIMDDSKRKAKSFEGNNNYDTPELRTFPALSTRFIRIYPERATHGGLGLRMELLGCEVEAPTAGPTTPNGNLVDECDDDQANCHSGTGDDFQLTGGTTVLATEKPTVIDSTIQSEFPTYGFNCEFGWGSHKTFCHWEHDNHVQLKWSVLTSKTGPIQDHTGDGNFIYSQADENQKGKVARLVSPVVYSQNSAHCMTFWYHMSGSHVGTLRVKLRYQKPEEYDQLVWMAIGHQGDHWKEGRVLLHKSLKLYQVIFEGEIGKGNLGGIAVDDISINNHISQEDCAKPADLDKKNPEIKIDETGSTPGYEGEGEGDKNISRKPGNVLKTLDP
Experiment: SPR; Biacore T200; trap immobilised by amine coupling on a CM4 chip (100-150 RU); SEMA3A or VEGF-A injected at 12.5-100 nM, 40 ul/min, PBS with 0.025% (v/v) Tween-20; global fit to a one-site Langmuir binding model
Settings: both partners purified

| Binder | Kd |
| --- | --- |
| B1 | 4.32 nM |
| B2 | 0.67 nM |
